Measured values reported in patent publication US20180273587A1 (AILERON THERAPEUTICS, published 2018).
One block for each binder: values may come before it. Positions of bridges follow the written chain, without caps; N, C: chain ends. Non-standard residues stand in square brackets, D forms with d. Bip = N[C@@H](Cc1ccc(-c2ccccc2)cc1)C(=O)O; αMeW = C[C@](N)(Cc1c[nH]c2ccccc12)C(=O)O; R8 = C=CCCCCCC[C@@](C)(N)C(=O)O; S5 = C=CCCC[C@](C)(N)C(=O)O; Aib = CC(C)(N)C(=O)O

Tests used:
Test in all cases: Ki table, method not stated
BCL-2 = BCL-2 (UniProt P10415 1-217, limits assumed)
BCL-2, sequence (P10415 1-217 limits assumed): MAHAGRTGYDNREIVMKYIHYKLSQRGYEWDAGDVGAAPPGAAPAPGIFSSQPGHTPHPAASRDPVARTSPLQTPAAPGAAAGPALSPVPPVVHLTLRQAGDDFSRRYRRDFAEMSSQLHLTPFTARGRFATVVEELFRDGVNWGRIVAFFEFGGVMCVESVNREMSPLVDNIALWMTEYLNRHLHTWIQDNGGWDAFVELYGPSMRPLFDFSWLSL

MCL-1 = target: T1, MCL-1 (UniProt Q07820 172-327, limits assumed)
T1 construct: also called Myeloid cell leukemia 1
T1 sequence (Q07820 172-327 limits assumed): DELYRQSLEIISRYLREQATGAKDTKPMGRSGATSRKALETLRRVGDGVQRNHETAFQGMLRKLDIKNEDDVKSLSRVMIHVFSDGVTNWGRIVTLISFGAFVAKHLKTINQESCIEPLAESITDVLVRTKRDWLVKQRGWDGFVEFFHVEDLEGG

BCL-XL = BCL-XL (UniProt Q07817 1-209)
BCL-XL, sequence (Q07817 1-209): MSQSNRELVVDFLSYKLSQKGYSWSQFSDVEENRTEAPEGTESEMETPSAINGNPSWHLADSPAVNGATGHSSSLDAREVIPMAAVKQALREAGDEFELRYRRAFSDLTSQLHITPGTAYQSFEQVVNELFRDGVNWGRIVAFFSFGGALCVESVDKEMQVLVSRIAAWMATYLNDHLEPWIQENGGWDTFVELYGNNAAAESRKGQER

B1: SEQ ID NO: 1703 (peptide)
peptide: Ac-I[αMeW]IAQALR[R8]IGDAFN[S5]YYA-NH2
modifications: staple 9-16
SMILES: CC[C@H](C)[C@H](NC(C)=O)C(=O)N[C@@](C)(Cc1c[nH]c2ccccc12)C(=O)N[C@H](C(=O)N[C@@H](C)C(=O)N[C@@H](CCC(N)=O)C(=O)N[C@@H](C)C(=O)N[C@@H](CC(C)C)C(=O)N[C@@H](CCCNC(=N)N)C(=O)N[C@]1(C)CCCCCCC=CCCC[C@@](C)(C(=O)N[C@@H](Cc2ccc(O)cc2)C(=O)N[C@@H](Cc2ccc(O)cc2)C(=O)N[C@@H](C)C(N)=O)NC(=O)[C@H](CC(N)=O)NC(=O)[C@H](Cc2ccccc2)NC(=O)[C@H](C)NC(=O)[C@H](CC(=O)O)NC(=O)CNC(=O)[C@H]([C@@H](C)CC)NC1=O)[C@@H](C)CC
notes: also called Ac-IAmWIAQALR$r8IGDAFN$YYA-NH2
- Ki (BCL-2): 70.6 nM
- Ki (MCL-1): 9.9 nM
- Ki (BCL-XL): 17.4 nM

B4: SEQ ID NO: 1704 (peptide)
peptide: Ac-I[Aib]IAQALR[R8]IGDAFN[S5]YYA-NH2
modifications: staple 9-16
SMILES: CC[C@H](C)[C@H](NC(C)=O)C(=O)NC(C)(C)C(=O)N[C@H](C(=O)N[C@@H](C)C(=O)N[C@@H](CCC(N)=O)C(=O)N[C@@H](C)C(=O)N[C@@H](CC(C)C)C(=O)N[C@@H](CCCNC(=N)N)C(=O)N[C@]1(C)CCCCCCC=CCCC[C@@](C)(C(=O)N[C@@H](Cc2ccc(O)cc2)C(=O)N[C@@H](Cc2ccc(O)cc2)C(=O)N[C@@H](C)C(N)=O)NC(=O)[C@H](CC(N)=O)NC(=O)[C@H](Cc2ccccc2)NC(=O)[C@H](C)NC(=O)[C@H](CC(=O)O)NC(=O)CNC(=O)[C@H]([C@@H](C)CC)NC1=O)[C@@H](C)CC
notes: also called Ac-IAibIAQALR$r8IGDAFN$YYA-NH2
- Ki (BCL-2): 97.9 nM
- Ki (MCL-1): 42.5 nM
- Ki (BCL-XL): 83.5 nM

Continued by falling Ki (BCL-2), values first:

- Ki (BCL-2): 280 nM
- Ki (MCL-1): 83.7 nM
- Ki (BCL-XL): 8 nM
B3: SEQ ID NO: 1697 (peptide)
peptide: Ac-IWIAQA[Bip]R[R8]IGDAFN[S5]YYA-NH2
modifications: staple 9-16
SMILES: CC[C@H](C)[C@H](NC(C)=O)C(=O)N[C@@H](Cc1c[nH]c2ccccc12)C(=O)N[C@H](C(=O)N[C@@H](C)C(=O)N[C@@H](CCC(N)=O)C(=O)N[C@@H](C)C(=O)N[C@@H](Cc1ccc(-c2ccccc2)cc1)C(=O)N[C@@H](CCCNC(=N)N)C(=O)N[C@]1(C)CCCCCCC=CCCC[C@@](C)(C(=O)N[C@@H](Cc2ccc(O)cc2)C(=O)N[C@@H](Cc2ccc(O)cc2)C(=O)N[C@@H](C)C(N)=O)NC(=O)[C@H](CC(N)=O)NC(=O)[C@H](Cc2ccccc2)NC(=O)[C@H](C)NC(=O)[C@H](CC(=O)O)NC(=O)CNC(=O)[C@H]([C@@H](C)CC)NC1=O)[C@@H](C)CC
notes: also called Ac-IWIAQABipR$r8IGDAFN$YYA-NH2

- Ki (BCL-2): 39.1 nM
- Ki (MCL-1): 9.8 nM
- Ki (BCL-XL): 20.5 nM
B2: SEQ ID NO: 1726 (peptide)
peptide: Ac-IRIAAALR[R8]IGDAFN[S5]YYA-NH2
modifications: staple 9-16
SMILES: CC[C@H](C)[C@H](NC(C)=O)C(=O)N[C@@H](CCCNC(=N)N)C(=O)N[C@H](C(=O)N[C@@H](C)C(=O)N[C@@H](C)C(=O)N[C@@H](C)C(=O)N[C@@H](CC(C)C)C(=O)N[C@@H](CCCNC(=N)N)C(=O)N[C@]1(C)CCCCCCC=CCCC[C@@](C)(C(=O)N[C@@H](Cc2ccc(O)cc2)C(=O)N[C@@H](Cc2ccc(O)cc2)C(=O)N[C@@H](C)C(N)=O)NC(=O)[C@H](CC(N)=O)NC(=O)[C@H](Cc2ccccc2)NC(=O)[C@H](C)NC(=O)[C@H](CC(=O)O)NC(=O)CNC(=O)[C@H]([C@@H](C)CC)NC1=O)[C@@H](C)CC
